Data as given in patent US20230072133A1 (WUXI BIOLOGICS IRELAND, published 2023).

Legend:
[1] = molecular target: T1, Human TGF-β1 (human, UniProt P01137 279-390); assay: ELISA, plate coated with human TGF-β1, antibody titrated, HRP goat anti-human IgG
T1 construct: 22 kDa was used for the molar concentration in SPR
Procedure: (§1) The binding of antibodies to human TGF-β1, TGF-β2 and TGF-β3 was determined by ELISA. Plates were coated with human TGF-β1, TGF-β2 or TGF-β3 overnight at 4° C., respectively. After blocking and washing, various concentrations of testing antibodies were added to the plates and incubated at room temperature for 1 hour. The plates were then washed and incubated with HRP-labeled goat anti-human IgG antibody (Bethyl) for 1 hour. After washing, TMB substrate was added and the color reaction was stopped by 2M HCl. The absorbance at 450 nm and 540 nm was read using a microplate reader (SpectraMax M5e).

[2] = molecular target: T2, Human TGF-β3 (human, UniProt P10600 301-412); assay: ELISA, plate coated with human TGF-β3, antibody titrated, HRP goat anti-human IgG
T2 construct: also called TGF433 [sic]
T2 sequence (looked up): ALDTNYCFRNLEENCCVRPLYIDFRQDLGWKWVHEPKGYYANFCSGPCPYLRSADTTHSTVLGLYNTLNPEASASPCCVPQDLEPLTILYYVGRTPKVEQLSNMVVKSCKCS
Procedure: as §1

[3] = molecular target: T3, Human PD-L1, full length, on transfected cells (W315-CHO-K1.hProl.C11) (human, UniProt Q9NZQ7 19-290); assay: competition FACS: blocks mFc tagged human PD-1 binding to human PD-L1 expressing cells
T3 construct: whole, on cells; Also used here for the human PD-L1 on the artificial APC (CHO-K1 with human PD-L1 and OKT3 scFv) of the reporter gene assay; also called hPD-L1; cell surface human PD-L1
T3 sequence (Q9NZQ7 19-290): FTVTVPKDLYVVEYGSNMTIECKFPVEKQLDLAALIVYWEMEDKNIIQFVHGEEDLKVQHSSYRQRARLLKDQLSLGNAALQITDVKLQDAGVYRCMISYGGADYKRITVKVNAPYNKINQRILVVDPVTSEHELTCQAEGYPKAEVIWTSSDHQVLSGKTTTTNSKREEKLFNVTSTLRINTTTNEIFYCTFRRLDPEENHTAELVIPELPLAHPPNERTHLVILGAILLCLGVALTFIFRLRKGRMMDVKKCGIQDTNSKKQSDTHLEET
Procedure: MFI of the cells was measured by a flow cytometer and analyzed by FlowJo.

[4] = molecular target: T2, Human TGF-β3; assay: SPR (Biacore 8K), antibody immobilized on CM5, TGFβ as analyte, 1:1 model
Procedure: (§2) Antibody binding affinity to TGFβ was detected by SPR assay using Biacore 8K. Each antibody was immobilized on CM5 sensor chip (GE). Human TGFβ1 and TGFβ3 at different concentrations were injected over the sensor chip at a flow rate of 50 uL/min for an association phase of 240 s, followed by 1200 s dissociation. Human TGFβ2 at different concentrations were injected over the sensor chip at a flow rate of 50 uL/min for an association phase of 240 s, followed by 300 s dissociation. The chip was regenerated by 10 mM glycine (pH 1.5) after each binding cycle.
(§3) The sensorgrams of blank surface and buffer channel were subtracted from the test sensorgrams. The experimental data was fitted by 1:1 model using Langmiur analysis. Molecular weight of 22 kDa, 24 kDa and 22 kDa were used to calculate the molar concentration of analyte TGFβ1, TGFβ2 and TGFβ3, respectively. The results are shown in […]

[5] = molecular target: T1, Human TGF-β1; assay: as above
Procedure: as §2, §3

[6] = molecular target: T4, Mouse PD-L1 (soluble SPR analyte) (mouse, UniProt Q9EP73 19-239, limits assumed); assay: SPR (Biacore 8K), antibody captured by anti-human IgG Fc, mouse PD-L1 as analyte, 0-300 s curves fitted
T4 construct: 40 kDa used for molarity
T4 sequence (Q9EP73 19-239 limits assumed): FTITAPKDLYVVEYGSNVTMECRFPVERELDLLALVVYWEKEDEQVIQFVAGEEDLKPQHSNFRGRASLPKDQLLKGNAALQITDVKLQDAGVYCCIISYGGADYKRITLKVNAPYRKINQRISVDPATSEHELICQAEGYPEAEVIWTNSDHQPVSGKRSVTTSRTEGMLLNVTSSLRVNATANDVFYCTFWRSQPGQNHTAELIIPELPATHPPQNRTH
Procedure: (§4) Antibody was captured on an anti-human IgG Fc antibody immobilized CM5 sensor chip (GE). Human or cyno PD-L1 at different concentrations were injected over the sensor chip at a flow rate of 30 μL/min for an association phase of 180 s, followed by 3600 s dissociation. Mouse PD-L1 at different concentrations were injected over the sensor chip at a flow rate of 30 μL/min for an association phase of 120 s, followed by 1200 s dissociation. The chip was regenerated by 10 mM glycine (pH 1.5) after each binding cycle.
(§5) The sensorgrams of blank surface and buffer channel were subtracted from the test sensorgrams. […] The experimental data was fitted by 1:1 model using Langmiur analysis. Molecular weight of 40 kDa was used to calculate the molar concentration of human, mouse and cyno PD-L1.

[7] = molecular target: T5, Human TGF-β2 (human, UniProt P61812 303-414); assay: ELISA, antibody immobilized, soluble TGF-β2 titrated; ELISA with antibody immobilized and soluble TGF-β2 titrated: binds
T5 sequence (looked up): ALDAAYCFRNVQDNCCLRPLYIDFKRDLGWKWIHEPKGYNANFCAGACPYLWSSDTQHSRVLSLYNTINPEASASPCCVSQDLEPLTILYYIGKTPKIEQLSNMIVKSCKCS
Procedure: The binding of antibody to human TGF-β2 was also determined by ELISA immobilized with testing antibodies. After blocking and washing, various concentrations of TGF-β2 were added to the plates and incubated at room temperature for 1 hour. The plates were then washed and incubated with biotinylated TGF-β2 detection antibody (R&D, DY240) for 1 hour, followed by streptavidin-HRP for 1 hour. After washing, TMB substrate was added and the color reaction was stopped by 2M HCl. The absorbance at 450 nm and 540 nm was read using a microplate reader (SpectraMax M5e).

[8] = molecular target: Human FcRn (human, UniProt P55899 24-297; P61769 21-119); assay: SPR (Biacore 8K), antibody immobilized on CM5, human FcRn as analyte, steady-state model, pH 6.0
Sequence of Human FcRn (P55899 24-297 limits assumed, chain 1 of 2): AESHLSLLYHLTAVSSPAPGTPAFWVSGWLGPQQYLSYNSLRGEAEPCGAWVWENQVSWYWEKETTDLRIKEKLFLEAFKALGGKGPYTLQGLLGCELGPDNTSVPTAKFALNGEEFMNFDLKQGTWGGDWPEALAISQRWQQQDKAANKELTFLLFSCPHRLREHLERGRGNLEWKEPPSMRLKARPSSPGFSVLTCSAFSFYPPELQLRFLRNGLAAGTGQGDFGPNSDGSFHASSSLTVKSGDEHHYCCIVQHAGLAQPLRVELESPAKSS
Sequence of Human FcRn (P61769 21-119 limits assumed, chain 2 of 2): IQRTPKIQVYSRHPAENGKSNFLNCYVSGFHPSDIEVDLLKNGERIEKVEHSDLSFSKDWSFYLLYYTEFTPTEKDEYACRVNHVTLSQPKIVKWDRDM
Procedure: Each antibody was immobilized on CM5 sensor chip (GE). […] The chip was then regenerated by 10 mM glycine (pH 1.5) after each binding cycle. The sensorgrams of blank surface and buffer channel were subtracted from the test sensorgrams.

[9] = molecular target: T3, Human PD-L1, full length, on …; assay: cell-based or functional assay
[10] = molecular target: T1, Human TGF-β1; assay: cell-based or functional assay
[11] = molecular target: T3, Human PD-L1, full length, on …; assay: FACS on human PD-L1 expressing CHO-K1 cells
Procedure: (§6) Various concentrations of testing antibodies were incubated with hPD-L1 expressing W315-CHO-K1.hProl.C11 cells at 4° C. for 1 hour. After washing, the cells were incubated with PE-labeled goat anti-human IgG-Fc antibody (Jackson Immuno Research). Finally, the MFI of the cells was measured by a flow cytometer and analyzed by FlowJo.

[12] = molecular target: T2, Human TGF-β3; assay: ELISA, plate coated with human TGF-β3
Procedure: as §1

[13] = molecular target: T1, Human TGF-β1; assay: dual binding ELISA coating with TGF-β1, WT1122 after 0 to 14 days in human serum at 37 °C, detected with biotinylated human PD-L1 ECD and streptavidin-HRP [upper panel]
Procedure: After blocking and washing, various concentrations of testing antibodies were added to the plates and incubated at room temperature for 1 hour. […] After washing, TMB substrate was added and the color reaction was stopped by 2M HCl. The absorbance at 450 nm and 540 nm was read using a microplate reader (SpectraMax M5e).
(§7) The samples were quickly thawed immediately prior to the stability test.

[14] = molecular target: T5, Human TGF-β2; assay: SPR (Biacore 8K), antibody immobilized on CM5, TGFβ as analyte, 1:1 model; SPR with WT1122 as ligand on the chip and soluble TGF-β2 as analyte: binds
Procedure: as §2, §3

[15] = molecular target: T6, Mouse PD-L1, full length, on transfected cells (W315-293F.mPro1.C1) (mouse, UniProt Q9EP73 19-290); assay: FACS on mouse PD-L1 expressing 293F cells
T6 construct: whole, on cells; also called cell surface mouse PD-L1
T6 sequence (Q9EP73 19-290): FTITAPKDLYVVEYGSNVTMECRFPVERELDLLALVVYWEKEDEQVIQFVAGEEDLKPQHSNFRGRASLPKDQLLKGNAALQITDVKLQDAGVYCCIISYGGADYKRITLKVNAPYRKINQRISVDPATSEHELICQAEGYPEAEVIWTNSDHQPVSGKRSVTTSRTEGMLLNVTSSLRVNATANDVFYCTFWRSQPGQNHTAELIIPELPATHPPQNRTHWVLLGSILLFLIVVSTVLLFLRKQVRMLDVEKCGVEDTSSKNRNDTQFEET
Procedure: (§8) The binding of testing antibodies to cynomolgus monkey or mouse PD-L1 was determined by FACS. Various concentrations of testing antibody were incubated with cynomolgus PD-L1-expressing W315-293F.cynoPro1.2A2 cells or mouse PD-L1 expressing W315-293F.mPro1.C1 cells at 4° C. for 1 hour, and then the binding of antibodies to the surface of the cells was detected by PE-labeled goat anti-human IgG-Fc antibody (Jackson Immuno Research). MFI of the cells was measured by a flow cytometer and analyzed by FlowJo.

[16] = molecular target: T7, Human PD-L1 extracellular domain (ECD) antigen His tagged (human, UniProt Q9NZQ7 19-238); assay: SPR (Biacore 8K), antibody captured by anti-human IgG Fc, PD-L1 as analyte, 1:1 model
T7 construct: extracellular domain; The SPR and the PD-L1-coated ELISA say only 'human PD-L1'; also called human PD-L1 ECD protein; Human PD-L1 (SPR analyte); not shown: His tag
T7 sequence (Q9NZQ7 19-238): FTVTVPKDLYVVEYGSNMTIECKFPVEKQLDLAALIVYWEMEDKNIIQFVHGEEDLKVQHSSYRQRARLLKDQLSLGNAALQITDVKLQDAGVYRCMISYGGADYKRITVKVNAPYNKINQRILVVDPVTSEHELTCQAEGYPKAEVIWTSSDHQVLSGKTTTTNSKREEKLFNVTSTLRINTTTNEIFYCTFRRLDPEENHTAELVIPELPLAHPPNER
Procedure: as §4, §5

[17] = molecular target: T8, Cynomolgus monkey (cyno) PD-L1 ECD antigen His tagged (cynomolgus monkey, UniProt G7PSE7 19-238); assay: as above
T8 construct: also called Cyno PD-L1 (SPR analyte)
T8 sequence (G7PSE7 entry or part of it limits assumed): as the sequence (Q9NZQ7 19-238) above, with A33T, A34S, S62N, R68Q, Q82R, F173L, T185A, T192I, H215L counted along it
Procedure: as §4, §5

[18] = molecular target: T9, Cynomolgus monkey PD-L1, full length, on transfected cells (W315-293F.cynoPro1.2A2) (cynomolgus monkey, UniProt G7PSE7 19-290); assay: FACS on cyno PD-L1 expressing 293F cells
T9 construct: also called cyno PD-L1; cell surface cyno PD-L1
T9 sequence (G7PSE7 entry or part of it limits assumed): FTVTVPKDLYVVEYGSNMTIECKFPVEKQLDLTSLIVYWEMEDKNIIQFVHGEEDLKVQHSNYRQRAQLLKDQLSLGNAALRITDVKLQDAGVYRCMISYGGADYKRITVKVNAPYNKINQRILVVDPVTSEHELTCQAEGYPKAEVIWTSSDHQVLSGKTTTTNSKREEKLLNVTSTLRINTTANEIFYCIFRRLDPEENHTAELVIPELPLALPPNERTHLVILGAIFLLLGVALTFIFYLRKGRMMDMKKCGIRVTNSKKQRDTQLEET
Procedure: as §8

[19] = molecular target: T3, Human PD-L1, full length, on …; assay: PD-L1 FACS on human PD-L1 expressing cells, WT1122 after 0 to 14 days in human serum at 37 °C [lower panel]
Procedure: as §6, §7

[20] = molecular target: T1, Human TGF-β1; assay: ELISA, plate coated with human TGF-β1
Procedure: as §1

T1 sequence (P01137 279-390 limits assumed): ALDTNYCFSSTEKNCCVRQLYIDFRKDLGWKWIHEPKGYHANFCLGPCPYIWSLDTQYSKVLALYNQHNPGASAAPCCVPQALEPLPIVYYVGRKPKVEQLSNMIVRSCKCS

B1: WT1122-U14T1.G15-1.uIgG1 (antibody)
heavy: not shown
light: SYELTQPPSVSVSPGQTASITCSGSELPKRYAYWYQQKPGQSIVRVIYKDSERPSGISERFSGSSSGNTATLTISGTQAMDEADYYCSSTYGDRKLPIFGGGTKLTVLGQPKAAPSVTLFPPSSEELQANKATLVCLISDFYPGAVTVAWKADSSPVKAGVETTTPSKQSNNKYAASSYLSLTPEQWKSHKSYSCQVTHEGSTVEKTVAPTECS
EC50 (read off the curve) [1]: ~0.5 nM
EC50 (read off the curve) [2]: ~0.8 nM
IC50 [3]: 0.04 nM
Kd [4]: 1.62 pM
koff [4]: 9.35e-05 s⁻¹
kon [4]: 5.78e+07 M⁻¹ s⁻¹
Kd [5]: 1.65 pM
koff [5]: 0.000206 s⁻¹
kon [5]: 1.25e+08 M⁻¹ s⁻¹
Kd [6]: 1080 nM
EC50 [7]: 0.07 nM
Kd [8]: 2570 nM
hPD-1/PD-L1 signaling blockade IC50, NFAT luciferase reporter gene assay (RGA) [9]: 0.31 nM
TGF-β1 blockade IC50, SBE luciferase reporter gene assay (RGA) [10]: 1.2 nM
EC50 [11]: 0.7 nM
EC50 [12]: 0.8 nM
EC50 (read off the curve) [13]: ~0.4 nM
Kd [14]: 0.369 nM
koff [14]: 0.0149 s⁻¹
kon [14]: 4.02e+07 M⁻¹ s⁻¹
EC50 [15]: 1.2 nM
Kd [16]: 0.695 nM
koff [16]: 0.00168 s⁻¹
kon [16]: 2.41e+06 M⁻¹ s⁻¹
Kd [17]: 0.446 nM
koff [17]: 0.00135 s⁻¹
kon [17]: 3.03e+06 M⁻¹ s⁻¹
EC50 [18]: 1.08 nM
EC50 (read off the curve) [19]: ~0.2 nM
EC50 [20]: 0.5 nM
